Measured values: the supplement of paper PMC10567573

B1: FAM107A (parent)
chain: LQRVLEHRRRNQLIKKKKEELEAK
B2: SERPINB5 (parent)
chain: FPESETKECPFRVNKVCGAACSSK

Variants of: B1
Assay: protein stability index of a GFP-peptide fusion (GPS, HEK-293T) (PSI 1-6); higher = more stable
Details: c terminus: a fixed tail appended
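Note: lentivirally expressed fusions sorted by FACS into six bins by GFP to DsRed ratio, PSI derived from sequencing read proportions per bin multiplied by bin number.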

Protein stability index of substitutions, site by site:
E22: R 2.26; H 2.33; P 2.77; G 3.33; K 4.21; W 2.75; Q 3.59; Y 3.26; I 2.58; C 2.54; V 2.88; A 3.44; F 2.59; T 3.51; M 2.83; D 2.62; S 2.96; N 2.82; L 3.08
E20: K 3.34; M 3.5; L 3.03; F 2.52; Q 2.12; G 2.42; Y 2.94; D 3.71; P 3.74; T 3.45; V 3.58; W 2.29; I 3.35; N 3.35; H 2.83; S 3.99
L21: G 3.63; M 3.32; F 2.71; Y 2.46; A 3.88; S 3.92; Q 3.48; W 3.18; R 4.14; C 3.3; D 4.01; V 3.36; I 2.78; N 4.16; P 3.46; H 3.77; K 2.99; T 3.74
A23: S 3.63; V 3.03; K 2.86; N 3.56; I 2.75; Y 3.48; W 4.26; R 3.48; T 3.11; H 2.76; C 2.98; E 4.14; L 3.99; M 3.39; D 3.75; G 3.7; Q 3.87
K24: T 3.97; V 3.91; G 3.63; E 4.35; M 3.3; C 4.22; S 3.97; D 3.89; L 3.04; H 3.33; F 3.75; I 3.57; N 3.77; Q 3.9; W 2.88; R 2.61; P 3.44; Y 2.62; A 3.62

Variants of: B2
Assay: as above
Details: c terminus: a fixed tail appended

Protein stability index of substitutions, site by site:
P2: K 4.63; R 4.19; H 2.19; L 3.57; T 2.26; N 3.63; F 4.09; G 3.59; Y 3.67; C 2.31; V 2.13; M 3.77; D 4.73; I 2.07; A 2.02; W 3.64; Q 3.73; S 3.66; E 4.59
S4: V 3.08; F 2.54; H 2.62; M 2.48; P 3.49; A 2.46; L 2.35; G 2.25; T 3.34; I 2.72; W 2.03; K 3.78; Q 3.83; N 3.17; D 4.14; R 2.76; E 4.53; C 3.16; Y 2.9
E5: C 1.72; A 1.88
F1: Y 3.41; R 4.65; G 4.7; N 4.61; M 4.85; C 4.63; V 4.5; E 5.05; S 5.08; D 5.41; A 4.46; K 4.89; I 4.67; L 4.93; Q 4.5; H 4.54; P 4.52; W 3.85; T 2.73
E3: Q 1.75; F 1.75; Y 1.53; V 1.99; L 1.43; M 1.45; S 1.47; A 1.42; N 2.4; G 1.88; W 2.29; I 1.86; T 1.43; P 2.15; C 2.4; K 2.09; H 1.55; D 2.42; R 1.71
